This assay concerns the target Fc fragment of IgE (domains Cε2-4) (human). Description: SPR.

Fc fragment of IgE (domains Cε2-4) (human), sequence (P01854 whole entry, the tested form may be a part): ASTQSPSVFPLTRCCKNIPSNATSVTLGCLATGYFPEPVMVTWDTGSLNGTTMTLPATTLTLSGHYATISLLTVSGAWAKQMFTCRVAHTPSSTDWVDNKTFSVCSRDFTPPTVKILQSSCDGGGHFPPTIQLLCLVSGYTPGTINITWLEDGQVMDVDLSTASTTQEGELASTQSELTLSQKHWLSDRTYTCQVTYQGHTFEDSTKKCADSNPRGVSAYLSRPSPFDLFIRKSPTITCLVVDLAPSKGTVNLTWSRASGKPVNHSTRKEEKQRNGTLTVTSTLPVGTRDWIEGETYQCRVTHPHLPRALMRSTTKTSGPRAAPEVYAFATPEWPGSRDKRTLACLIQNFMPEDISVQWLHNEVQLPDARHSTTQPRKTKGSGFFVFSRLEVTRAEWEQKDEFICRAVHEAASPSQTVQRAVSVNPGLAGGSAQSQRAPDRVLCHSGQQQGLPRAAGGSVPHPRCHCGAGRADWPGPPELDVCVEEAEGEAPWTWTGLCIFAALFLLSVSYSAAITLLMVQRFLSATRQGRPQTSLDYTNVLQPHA

B1: derCD23, recombinant version of the Der p I fragment of human CD23 (FcεRII), C-type lectin domain (domain or fragment)
chain: SGFVCNTCPEKWINFQRKCYYFGKGTKQWVHARYACDDMEGQLVSIHSPEEQDFLTKHASHTGSWIGLRNLDLKGEFIWVDGSHVDYSNWAPGEPTSRSQGEDCVMMRGSGRWNDAFCDRKLGAWVCDRLATCTPPASEGSAE
In general, Kd refers to the free concentration of one partner at which half of the binding sites on the other are occupied at equilibrium, for simple one-to-one binding. Consider B1, for which the Kd came to 1300 nM.

B2: exCD23, recombinant soluble CD23 fragment containing the entire extracellular sequence (domain or fragment)
chain: DTTQSLKQLEERAARNVSQVSKNLESHHGDQMAQKSQSTQISQELEELRAEQQRLKSQDLELSWNLNGLQADLSSFKSQELNERNEASDLLERLREEVTKLRMELQVSSGFVCNTCPEKWINFQRKCYYFGKGTKQWVHARYACDDMEGQLVSIHSPEEQDFLTKHASHTGSWIGLRNLDLKGEFIWVDGSHVDYSNWAPGEPTSRSQGEDCVMMRGSGRWNDAFCDRKLGAWVCDRLATCTPPASEGSAESMGPDSRPDPDGRLPTPSAPLHS
With B2, the KD, first of two components came to 1100 nM; the KD, second of two components was 39 nM; the koff, major component was found to be 0.0005 s⁻¹; the koff, minor component came out at 0.04 s⁻¹.

Source of the values: PMC2212946.
